Results: the supplement of paper PMC11246515
± gives the standard deviation of the averaged measurements.

Test: total protein half-life in vivo (active degradation + dilution); higher = more stable protein
[1] = E. coli NCM3722 delta-clpP delta-lon delta-hslV, growth: N-lim chemostat, doubling time 6 h
[2] = E. coli NCM3722 delta-clpP, growth: N-lim chemostat, doubling time 6 h
[3] = E. coli NCM3722 delta-hslV, growth: N-lim chemostat, doubling time 6 h
[4] = E. coli NCM3722 delta-lon, growth: N-lim chemostat, doubling time 6 h
[5] = E. coli NCM3722 delta-smpB, growth: N-lim chemostat, doubling time 6 h
[6] = wild type E. coli NCM3722, growth: C-lim chemostat, doubling time 3 h
[7] = wild type E. coli NCM3722, growth: C-lim chemostat, doubling time 6 h
[8] = wild type E. coli NCM3722, growth: C-lim chemostat, doubling time 12 h
[9] = wild type E. coli NCM3722, growth: N-lim chemostat, doubling time 6 h
[10] = wild type E. coli NCM3722, growth: N-lim chemostat, doubling time 12 h
[11] = wild type E. coli NCM3722, growth: P-lim chemostat, doubling time 6 h
[12] = wild type E. coli NCM3722, growth: P-lim chemostat, doubling time 12 h

Sequence | total protein half-life in vivo [1] [h] | total protein half-life in vivo [2] [h] | total protein half-life in vivo [3] [h] | total protein half-life in vivo [4] [h] | total protein half-life in vivo [5] [h] | total protein half-life in vivo [6] [h] | total protein half-life in vivo [7] [h] | total protein half-life in vivo [8] [h] | total protein half-life in vivo [9] [h] | total protein half-life in vivo [10] [h] | total protein half-life in vivo [11] [h] | total protein half-life in vivo [12] [h]
MEIYENENDQVEAVKRFFAENGKALAVGVILGVGALIGWRYWNSHQVDSARSASLAYQNAVTAVSEGKPDSIPAAEKFAAENKNTYGALASLELAQQFVDKNELEKAAAQLQQGLADTSDENLKAVINLRLARVQVQLKQADAALKTLDTIKGEGWAAIVADLRGEALLSKGDKQGARSAWEAGVKSDVTPALSEMMQMKINNLSI | 5.43 ± 0.11 | 5.4 ± 0.35 | 5.99 ± 0.76 | 6.64 ± 0.78 | 5.52 ± 0.16 | 2.83 ± 0.14 | 4.7 ± 0.38 | 10.3 ± 0.96 | 5.8 ± 0.6 | 11.9 ± 0.17 | 4.55 ± 0.6 | 8.84 ± 0.18
MEKAKQVTWRLLAAGVCLLTVSSVARADSLDEQRSRYAQIKQAWDNRQMDVVEQMMPGLKDYPLYPYLEYRQITDDLMNQPAVTVTNFVRANPTLPPARTLQSRFVNELARREDWRGLLAFSPEKPGTTEAQCNYYYAKWNTGQSEEAWQGAKELWLTGKSQPNACDKLFSVWRASGKQDPLAYLERIRLAMKAGNTGLVTVLAGQMPADYQTIASAIISLANNPNTVLTFARTTGATDFTRQMAAVAFASVARQDAENARLMIPSLAQAQQLNEDQIQELRDIVAWRLMGNDVTDEQAKWRDDAIMRSQSTSLIERRVRMALGTGDRRGLNTWLARLPMEAKEKDEWRYWQADLLLERGREAEAKEILHQLMQQRGFYPMVAAQRIGEEYELKIDKAPQNVDSALTQGPEMARVRELMYWNLDNTARSEWANLVKSKSKTEQAQLARYAFNNQWWDLSVQATIAGKLWDHLEERFPLAYNDLFKRYTSGKEIPQSYAMAIARQESAWNPKVKSPVGASGLMQIMPGTATHTVKMFSIPGYSSPGQLLDPETNINIGTSYLQYVYQQFGNNRIFSSAAYNAGPGRVRTWLGNSAGRIDAVAFVESIPFSETRGYVKNVLAYDAYYRYFMGDKPTLMSATEWGRRY [P0AGC3] | 5.924 ± 0.022 | 6.7 ± 0.89 | 6.326 ± 0.06 | 6.53 ± 0.35 | 6.054 ± 0.043 | 3.16 ± 0.12 | 6.34 ± 0.25 | 12 ± 2.2 | 6.29 ± 0.41 | 12.2 ± 0.23 | 6.07 ± 0.19 | 12.3 ± 0.39
MEKENITIDPRSSFTPSSSADIPVPPDGLVQRSTRIKRIQTTAMLLLFFAAVINYLDRSSLSVANLTIREELGLSATEIGALLSVFSLAYGIAQLPCGPLLDRKGPRLMLGLGMFFWSLFQAMSGMVHNFTQFVLVRIGMGIGEAPMNPCGVKVINDWFNIKERGRPMGFFNAASTIGVAVSPPILAAMMLVMGWRGMFITIGVLGIFLAIGWYMLYRNREHVELTAVEQAYLNAGSVNARRDPLSFAEWRSLFRNRTMWGMMLGFSGINYTAWLYLAWLPGYLQTAYNLDLKSTGLMAAIPFLFGAAGMLVNGYVTDWLVKGGMAPIKSRKICIIAGMFCSAAFTLIVPQATTSMTAVLLIGMALFCIHFAGTSCWGLIHVAVASRMTASVGSIQNFASFICASFAPIITGFIVDTTHSFRLALIICGCVTAAGALAYIFLVRQPINDPRKD | – | – | – | – | – | – | – | 5.28 | – | – | – | –
MEKKIGFIGCGNMGKAILGGLIASGQVLPGQIWVYTPSPDKVAALHDQFGINAAESAQEVAQIADIIFAAVKPGIMIKVLSEITSSLNKDSLVVSIAAGVTLDQLARALGHDRKIIRAMPNTPALVNAGMTSVTPNALVTPEDTADVLNIFRCFGEAEVIAEPMIHPVVGVSGSSPAYVFMFIEAMADAAVLGGMPRAQAYKFAAQAVMGSAKMVLETGEHPGALKDMVCSPGGTTIEAVRVLEEKGFRAAVIEAMTKCMEKSEKLSKS [P0A9L8] | 6.83 ± 1.6 | 5.45 ± 0.76 | 5.12 ± 0.073 | 5.68 ± 0.49 | 5.54 ± 0.52 | 3.01 ± 0.19 | 6.48 ± 1 | 10.6 ± 2.5 | 5.02 ± 0.91 | 9.31 ± 1 | 5.51 ± 0.83 | 11.8 ± 0.66
MEKNSLFSQRIRLRHLHTFVAVAQQGTLGRAAETLNLSQPALSKTLNELEQLTGARLFERGRQGAQLTLPGEQFLTHAVRVLDAINTAGRSLHRKEGLNNDVVRVGALPTAALGILPSVIGQFHQQQKETTLQVATMSNPMILAGLKTGEIDIGIGRMSDPELMTGLNYELLFLESLKLVVRPNHPLLQENVTLSRVLEWPVVVSPEGTAPRQHSDALVQSQGCKIPSGCIETLSASLSRQLTVEYDYVWFVPSGAVKDDLRHATLVALPVPGHGAGEPIGILTRVDATFSSGCQLMINAIRKSMPF | 5.7 ± 0.088 | 2.66 ± 1.2 | 2.014 ± 0.017 | 4.21 ± 0.12 | 1.61 ± 0.065 | 1.77 ± 0.26 | 3.159 ± 0.0044 | 4.49 ± 0.46 | 2.01 ± 0.12 | 2.5 ± 0.039 | 2.67 ± 0.7 | 3.86 ± 0.13
MEKTTTQELLAQAEKICAQRNVRLTPQRLEVLRLMSLQDGAISAYDLLDLLREAEPQAKPPTVYRALDFLLEQGFVHKVESTNSYVLCHLFDQPTHTSAMFICDRCGAVKEECAEGVEDIMHTLAAKMGFALRHNVIEAHGLCAACVEVEACRHPEQCQHDHSVQVKKKPR [P0AC51] | 5.27 ± 0.88 | 5.4504 ± 0.0027 | 5.09 | 5.63 ± 0.19 | 4.2 ± 0.9 | – | 3.79 | 9 ± 1.9 | 5.15 | 6.28 | 3.86 ± 0.18 | 8.62 ± 0.42
